This is an account of results in publication PMC5095699 (Biochemistry, 2015).

Read-outs that look alike come from different tables or passages of the source.

Data set [1] deals with QdtA (Thermoanaerobacterium thermosaccharolyticum, UniProt Q6TFC5, Y17R/R97H). Kind of data set: X-ray crystal structure, […] A. It is filed as binding. As to conditions: dTDP co-purified from E. coli, not added; pH 6; active site.
In data set [2] the target is 3,4-ketoisomerase domain of FdtD from Shewanella denitrificans (Shewanella denitrificans). Briefly: crystal structure.
In data set [3] the target is 3,4-ketoisomerase domain of FdtD (Shewanella denitrificans, UniProt Q12KT8). Briefly: X-ray crystal structure, […] A. It is filed as binding. Conditions: crystal soaked with 3 mM ligand, pH 7; active site, substrate analogue.
Substrate in data set [4]: Cc1cn([C@H]2C[C@H](O)[C@@H](COP(=O)(O)OP(=O)(O)O[C@H]3O[C@H](C)C(=O)[C@H](O)[C@H]3O)O2)c(=O)[nH]c1=O
Briefly: purified protein. Conditions: 50 mM HEPES pH 7.5, 0.2 mM NADPH, 1 mg/mL KijD10.

Substrate in data set [5]: Cc1cn([C@H]2C[C@H](O)[C@@H](COP(=O)(O)OP(=O)(O)O[C@H]3O[C@H](C)C(=O)[C@H](O)[C@H]3O)O2)c(=O)[nH]c1=O
Kind of data set: purified protein. As to conditions: 50 mM HEPES pH 7.5, 0.2 mM NADPH, 1 mg/mL KijD10. Format: biochemical, Thermoanaerobacterium thermosaccharolyticum.

Data set [6] deals with the molecule itself. Kind of data set: crystal structure.
Data set [7] deals with the molecule itself. Kind of data set: crystal structure. This is another data set of the same source.
Substrate in data set [8]: Cc1cn([C@H]2C[C@H](O)[C@@H](COP(=O)(O)OP(=O)(O)O[C@H]3O[C@H](C)C(=O)[C@H](O)[C@H]3O)O2)c(=O)[nH]c1=O
Kind of data set: purified protein. Format: biochemical, Shewanella denitrificans. Conditions: 50 mM HEPES pH 7.5, 0.2 mM NADPH, 1 mg/mL KijD10.

As to `Cc1cn([C@H]2C[C@H](O)[C@@H](COP(=O)(O)OP(=O)(O)O)O2)c(=O)[nH]c1=O` [dTDP], the “X-ray crystal structure, 2.3 A” value in data set [1] is “Observed electron density for the dTDP moiety bound to the QdtA Y17R/R97H mutant enzyme”.
As to “3,4-ketoisomerase domain of FdtD from Shewanella denitrificans (domain or fragment)”, the stoichiometry N in data set [2] came out at 2.
With `Cc1cn([C@H]2C[C@H](O)[C@@H](COP(=O)(O)OP(=O)(O)O[C@H]3O[C@H](C)[C@@H](NC=O)[C@H](O)[C@H]3O)O2)c(=O)[nH]c1=O` [dTDP-4,6-dideoxy-4-formamido-glucose], in data set [3], the “X-ray crystal structure, 1.7 A” value is “structure of the enzyme was solved in the presence of dTDP-4,6-dideoxy-4-formamido-D-glucose”.

B1: QdtA (Thermoanaerobacterium thermosaccharolyticum; Y17R) (protein)
chain: MLYNVALIKFKDIADKRGHLTPIEGKIDIPFDIKRVYYITKVDKDITRGYHAHKKLHQVLICLNGSVKIRLKIPDEEKIIELNDPSVGLYIGPFLWREMFDFTEGCVLLVLASEYCDETDYIRNYDFYIDEAKKRF
Consider B1, for which, in data set [4], the Michaelis constant (Km) stood at 370 ± 60 µM.

B2: QdtA (Thermoanaerobacterium thermosaccharolyticum; R97H) (protein)
chain: MLYNVALIKFKDIADKYGHLTPIEGKIDIPFDIKRVYYITKVDKDITRGYHAHKKLHQVLICLNGSVKIRLKIPDEEKIIELNDPSVGLYIGPFLWHEMFDFTEGCVLLVLASEYCDETDYIRNYDFYIDEAKKRF
For B2, in data set [5], the Km was 61 ± 9 µM, the kcat came to 0.4 ± 0.06 s⁻¹ and the kcat/Km amounted to 6500 M⁻¹ s⁻¹.

B3: QdtA Y17R/R97H double mutant from Thermoanaerobacterium thermosaccharolyticum (enzyme)
chain: MLYNVALIKFKDIADKRGHLTPIEGKIDIPFDIKRVYYITKVDKDITRGYHAHKKLHQVLICLNGSVKIRLKIPDEEKIIELNDPSVGLYIGPFLWHEMFDFTEGCVLLVLASEYCDETDYIRNYDFYIDEAKKRF
For B3, in data set [4], the Km came out at 21 ± 5 µM. The “stoichiometry N” value in data set [6] is 2.

B4: QdtA from Thermoanaerobacterium thermosaccharolyticum, wild-type apoenzyme (enzyme)
chain: MLYNVALIKFKDIADKYGHLTPIEGKIDIPFDIKRVYYITKVDKDITRGYHAHKKLHQVLICLNGSVKIRLKIPDEEKIIELNDPSVGLYIGPFLWREMFDFTEGCVLLVLASEYCDETDYIRNYDFYIDEAKKRF
In the case of B4, in data set [5], the Km worked out at 140 ± 10 µM, the kcat amounted to 3.85 ± 0.25 s⁻¹ and the kcat/Km was 28000 M⁻¹ s⁻¹. The “stoichiometry N” value in data set [7] came out at 2.

B5: QdtA (Thermoanaerobacterium thermosaccharolyticum; Y37F) (protein)
chain: MLYNVALIKFKDIADKYGHLTPIEGKIDIPFDIKRVFYITKVDKDITRGYHAHKKLHQVLICLNGSVKIRLKIPDEEKIIELNDPSVGLYIGPFLWREMFDFTEGCVLLVLASEYCDETDYIRNYDFYIDEAKKRF
For B5, in data set [5], the Km stood at 34 ± 7 µM, the kcat is 0.023 ± 0.004 s⁻¹ and the kcat/Km amounted to 690 M⁻¹ s⁻¹.

B6: 3,4-ketoisomerase domain of FdtD (Shewanella denitrificans OS217) (protein)
chain: SNNFELKLQMSKVKGVSLHKFHLVNDLRGNLSVGEFEKDIPFTPKRYFTVFGVPNKEVRGEHAHKECKQFLICVSGNCSVLVDDGENREEYVLDSIDKGIYLPPMTWGVQYKYSKDAVLLVFASHYYDSDDYIRDYSTFKQMRQN
B6: in data set [8], the Km is 790 ± 120 µM, the kcat is 4.85 ± 0.56 s⁻¹ and the kcat/Km was found to be 6100 M⁻¹ s⁻¹.
